The record followed here is patent US20160052997A1 (CELLTRION, published 2016).

Several values for one entry are separate records, joined by “and”; a condition that tells them apart may be missing. Equal entries are not always repeated. Where two headings read alike, the source gives them in different places.

Test [1] concerns the target T1, purified recombinant HA protein of H1N1 (A/California/04/09) (Influenza A virus A/California/04/09 …, UniProt P26140 18-529).
Test [2] concerns the target T1, purified recombinant HA protein of H1N1 …. As to the kind of experiment: SPR, Biacore T200, HA captured via anti-6x his tag antibody, 25 C.

B1: CT149 (antibody, V domains shown)
VH: QVQLVQSGAEVKKPGASVKVSCKTSGYSFSTYGVSWVRQAPGQGPEWVGWISAYTGITDYAQKFQGRVTLTTDATTATAFLDLRSLRPDDTATYFCARDKVQGRVEVGSGGRHDYWGQGTLVIVSS
VL: EVVLTQSPGTLALPPGERATLSCRASHRVGSTYIAWYQQKSGQAPRRLIYGASNRATDIPDRFSGSGSGTDFTLTIRRLEPEDSAVYYCQQFSVSPWTFGQGTRVEIKR
Consider B1, for which, in test [1], the Kd amounted to 30.6 nM. In test [2], the dissociation constant Kd was 30.2 nM and 31 nM; the dissociation rate constant (koff) was 0.0388 s⁻¹ and 0.0399 s⁻¹; the on-rate (kon) worked out at 1.29e+06 M⁻¹ s⁻¹.
